Measurements: paper PMC8588036, “Molecular Cloning and Identification of NADPH Cytochrome P450 Reductase from Panax ginseng” (Molecules, 2021)

Key:
[1] = tested on: NC(=O)C1=CN([C@@H]2O[C@H](COP(=O)(O)OP(=O)(O)OC[C@H]3O[C@@H](n4cnc5c(N)ncnc54)[C@H](OP(=O)(O)O)[C@@H]3O)[C@@H](O)[C@H]2O)C=CC1; test: purified protein; details: 100 μmol/L cytochrome c, NADPH 0-400 μmol/L, 50 mmol/L Tris HCl pH 7.4, 0.1 mmol/L EDTA, 25 °C
[2] = tested on: T1, NC(=O)C1=CN([C@@H]2O[C@H](COP(=O)(O)OP(=O)(O)OC[C@H]3O[C@@H](n4cnc5c(N)ncnc54)[C@H](OP(=O)(O)O)[C@@H]3O)[C@@H](O)[C@H]2O)C=CC1; test: cytochrome c reduction, A550; type: biochemical, Panax ginseng; details: 100 μmol/L cytochrome c, NADPH 0-400 μmol/L, 50 mmol/L Tris HCl pH 7.4, 0.1 mmol/L EDTA, 25 °C
T1 construct: pET28a, His-tag, E. coli BL21(DE3), Ni-NTA

Sequence of PgCPR1 (Panax ginseng) (chain, as listed by the source): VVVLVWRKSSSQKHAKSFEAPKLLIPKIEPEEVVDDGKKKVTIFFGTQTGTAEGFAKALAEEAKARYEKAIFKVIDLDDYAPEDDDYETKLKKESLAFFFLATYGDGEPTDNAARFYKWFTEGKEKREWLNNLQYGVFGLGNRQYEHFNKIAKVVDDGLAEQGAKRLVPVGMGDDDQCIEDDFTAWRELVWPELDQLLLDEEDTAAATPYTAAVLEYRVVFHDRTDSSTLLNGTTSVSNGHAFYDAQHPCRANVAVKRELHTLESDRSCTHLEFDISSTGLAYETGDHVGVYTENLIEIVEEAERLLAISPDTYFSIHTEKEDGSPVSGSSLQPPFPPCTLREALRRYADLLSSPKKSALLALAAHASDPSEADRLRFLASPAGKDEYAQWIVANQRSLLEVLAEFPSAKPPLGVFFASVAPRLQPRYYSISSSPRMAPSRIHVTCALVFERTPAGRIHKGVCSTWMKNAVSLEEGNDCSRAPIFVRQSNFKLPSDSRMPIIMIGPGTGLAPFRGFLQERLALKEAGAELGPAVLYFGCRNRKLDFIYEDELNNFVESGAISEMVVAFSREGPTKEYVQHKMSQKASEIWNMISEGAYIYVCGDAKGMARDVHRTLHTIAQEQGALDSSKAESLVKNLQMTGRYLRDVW
Sequence of PgCPR2 (Panax ginseng) (chain, as listed by the source): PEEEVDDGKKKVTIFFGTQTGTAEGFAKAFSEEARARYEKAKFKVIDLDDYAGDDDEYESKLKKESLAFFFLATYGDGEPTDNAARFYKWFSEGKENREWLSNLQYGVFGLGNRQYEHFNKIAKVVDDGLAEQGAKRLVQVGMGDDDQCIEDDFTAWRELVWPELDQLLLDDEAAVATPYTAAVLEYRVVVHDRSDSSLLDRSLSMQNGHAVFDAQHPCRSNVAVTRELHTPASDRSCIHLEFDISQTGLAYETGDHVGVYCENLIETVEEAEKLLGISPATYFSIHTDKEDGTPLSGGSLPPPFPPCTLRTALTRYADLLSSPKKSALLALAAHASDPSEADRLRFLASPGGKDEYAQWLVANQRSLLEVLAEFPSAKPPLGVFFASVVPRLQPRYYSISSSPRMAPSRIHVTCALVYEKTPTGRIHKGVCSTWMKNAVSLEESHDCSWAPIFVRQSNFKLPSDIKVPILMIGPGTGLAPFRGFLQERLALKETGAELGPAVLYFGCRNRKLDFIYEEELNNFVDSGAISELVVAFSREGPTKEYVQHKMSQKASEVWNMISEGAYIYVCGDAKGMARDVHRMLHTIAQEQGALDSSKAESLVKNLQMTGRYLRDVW

Row | Substance | Km [1] [µM] | kcat [1] [s⁻¹] | kcat/Km [1] [M⁻¹ s⁻¹] | Km [2] [µM] | kcat [2] [s⁻¹] | kcat/Km [2] [M⁻¹ s⁻¹]
1 | AtCPR1 (Arabidopsis thaliana) | 84.61 ± 8.548 | 2.74 | 32400 | – | – | –
2 | PgCPR1 (Panax ginseng) | – | – | – | 62.9 ± 5.807 | 3.32 ± 0.0968 | 52800
3 | PgCPR2 (Panax ginseng) | – | – | – | 85.27 ± 6.07 | 3.38 ± 0.087 | 39600
